{"source": "patent US9335325B2", "about": "“Immunodominant Mycobacterium tuberculosis peptides from cell wall proteins for early diagnosis and immunization” (priority 2008, dated 2016)", "key": {"[1]": {"system": "anti-PTRP antibodies in sera from TB patients", "assay": "Western blot of rPTRP probed with human sera", "format": "binding", "details": "for sera showing reactivity with the ~52 kDa protein: positive/tested"}, "[2]": {"target": "T1, Thrombospondin (human platelet) (Homo sapiens, UniProt P07996)", "T1 construct": "Thrombospondin (human platelet) was from Calbiochem, EMD Biosciences Inc; purchased Calbiochem, EMD Biosciences Inc; host or cells: human platelet", "T1 sequence (P07996 19-1170)": "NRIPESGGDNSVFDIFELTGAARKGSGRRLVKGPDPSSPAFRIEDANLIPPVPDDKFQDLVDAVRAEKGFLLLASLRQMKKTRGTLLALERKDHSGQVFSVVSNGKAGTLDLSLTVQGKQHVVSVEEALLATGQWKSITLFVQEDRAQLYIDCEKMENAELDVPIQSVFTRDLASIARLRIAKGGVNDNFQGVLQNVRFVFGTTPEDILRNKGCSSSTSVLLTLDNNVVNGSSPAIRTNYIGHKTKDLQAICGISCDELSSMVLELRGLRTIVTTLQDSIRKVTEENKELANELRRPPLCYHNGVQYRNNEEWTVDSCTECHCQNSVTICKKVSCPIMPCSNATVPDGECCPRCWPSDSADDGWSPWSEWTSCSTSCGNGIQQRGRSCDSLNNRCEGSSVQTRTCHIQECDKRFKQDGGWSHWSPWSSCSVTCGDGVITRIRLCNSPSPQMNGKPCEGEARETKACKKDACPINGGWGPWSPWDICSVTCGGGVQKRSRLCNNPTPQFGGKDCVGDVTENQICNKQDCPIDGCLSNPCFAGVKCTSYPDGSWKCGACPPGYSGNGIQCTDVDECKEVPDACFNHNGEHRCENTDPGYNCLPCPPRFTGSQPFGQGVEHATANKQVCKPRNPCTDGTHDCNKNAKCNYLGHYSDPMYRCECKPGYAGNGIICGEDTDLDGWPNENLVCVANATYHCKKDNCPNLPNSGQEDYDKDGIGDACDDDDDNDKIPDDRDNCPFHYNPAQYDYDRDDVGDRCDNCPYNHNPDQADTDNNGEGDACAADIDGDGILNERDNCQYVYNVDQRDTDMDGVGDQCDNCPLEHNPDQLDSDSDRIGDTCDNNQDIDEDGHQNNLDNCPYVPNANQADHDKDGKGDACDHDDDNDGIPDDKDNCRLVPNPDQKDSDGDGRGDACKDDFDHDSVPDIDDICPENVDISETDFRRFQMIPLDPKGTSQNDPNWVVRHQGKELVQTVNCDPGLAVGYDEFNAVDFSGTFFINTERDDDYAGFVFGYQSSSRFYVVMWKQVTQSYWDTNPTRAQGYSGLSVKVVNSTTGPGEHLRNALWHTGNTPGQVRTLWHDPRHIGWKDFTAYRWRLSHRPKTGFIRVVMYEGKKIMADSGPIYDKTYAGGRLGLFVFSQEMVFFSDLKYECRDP", "assay": "Western blot binding of rPTRP to ECM protein", "details": "ECM protein 5 μg/ml", "procedure": "The binding of the purified rPTRP to various ECM proteins was determined both by western blotting and ELISA (21). Laminin-1 (human placenta); fibronectin and fibrinogen (human plasma) and elastin (human lung) were obtained from Sigma; human collagen I; collagen III and collagen IV (human placenta), collagen II (human cartilage) and vitronectin (human plasma) from Chemicon International Inc. Temecula, Calif. Thrombospondin (human platelet) was from Calbiochem, EMD Biosciences Inc. and BSA (negative control) was from Promega. Western blots containing rPTRP (0.4 μg/lane) were blocked with 3% BSA in PBS and incubated with the ECM proteins (5 μg/ml) dissolved in PBS. Negative control lanes were incubated with PBS alone. The bound ECM proteins were detected with appropriate anti-ECM antibodies (anti-laminin, anti-fibronectin, anti-thrombospondin and anti-vitronectin at 1:5000; anti-fibrinogen at 1:1000; anti-Col I, Col III, Col IV and anti-elastin at 1:500; anti-Col II at 1:100) followed by appropriate enzyme-conjugated secondary antibodies (anti-rabbit IgG-AP at 1:2000; anti-goat IgG-AP at 1:3000)."}, "[3]": {"system": "Laminin-1 (human placenta)", "assay": "Western blot binding of rPTRP to ECM protein", "details": "ECM protein 5 μg/ml"}, "[4]": {"system": "fibronectin (human plasma)", "assay": "Western blot binding of rPTRP to ECM protein", "details": "ECM protein 5 μg/ml"}, "[5]": {"system": "other ECM proteins tested (fibrinogen, elastin, collagen I-IV, vitronectin)", "assay": "Western blot binding of rPTRP to other ECM proteins", "set-up": "species or system human", "details": "data not shown"}, "[6]": {"system": "Laminin-1 (human placenta)", "assay": "ELISA binding of rPTRP to ECM protein", "details": "rPTRP 5-20 μg/ml coated, laminin 0.5 μg/ml", "procedure": "(§1) The wells of ELISA plates were coated with various concentration of rPTRP (5-20 μg/ml in PBS) or BSA for 1 h at 37° C. followed by ON at 4° C. Subsequently, the wells were washed with PBS, blocked with 1% BSA in PBS (2 h at 37° C.), washed again with PBST and incubated with different ECM proteins (1 μg/ml; only laminin at 0.5 μg/ml) for 2 h at 37° C. After washing again, the wells were exposed to respective anti-ECM antibodies and the appropriate enzyme-conjugated secondary antibodies to detect the bound ECM proteins."}, "[7]": {"target": "T1, Thrombospondin (human platelet)", "assay": "ELISA binding of rPTRP to ECM protein", "details": "rPTRP 5-20 μg/ml coated", "procedure": "as §1"}, "[8]": {"system": "fibronectin (human plasma)", "assay": "ELISA binding of rPTRP to ECM protein", "details": "rPTRP 5-20 μg/ml coated", "procedure": "as §1"}}}
{"molecule": "rPTRP: purified recombinant proline-threonine repetitive protein of Mtb (SEQ ID NO:2), GST tag cleaved (protein, GST tag cleaved; possible residual linker residues; Mycobacterium tuberculosis Strain H37Rv) MDVALGVAVTDRVARLALVDSAAPGTVIDQFVLDVAEHPVEVLTETVVGTDRSLAGENHRLVATRLCWPDQAKADELQHALQDSGVHDVAVISEAQAATALVGAAHAGSAVLLVGDETATLSVVGDPDAPPTMVAVAPVAGADATSTVDTLMARLGDQALAPGDVFLVGRSAEHTTVLADQLRAASTMRVQTPDDPTFALARGAAMAAGAATMAHPALVADATTSLPRAEAGQSGSEGEQLAYSQASDYELLPVDEYEEHDEYGAAADRSAPLSRRSLLIGNAVVAFAVIGFASLAVAVAVTIRPTAASKPVEGHQNAQPGKFMPLLPTQQQAPVPPPPPDDPTAGFQGGTIPAVQNVVPRPGTSPGVGGTPASPAPEAPAVPGVVPAPVPIPVPIIIPPFPGWQPGMPTIPTAPPTTPVTTSATTPPTTPPTTPVTTPPTTPPTTPVTTPPTTPPTTPVTTPPTTVAPTTVAPTTVAPTTVAPTTVAPATATPTTVAPQPTQQPTQQPTQQMPTQQQTVAPQTVAPAPQPPSGGRNGSGGGDLFGGF", "values": [{"measurement": "sera showing significant reactivity with the protein", "setting": "[1]; 6 PPD+, 6 PPD- and 6 HIV+TB- subjects", "value": "none"}, {"measurement": "sera showing reactivity with the ~52 kDa protein", "setting": "[1]; HIV+TB+ patients", "value": "5/6"}, {"measurement": "sera showing reactivity with the ~52 kDa protein", "setting": "[1]; HIV-TB+ patients", "value": "4/6"}, {"measurement": "binding to thrombospondin", "setting": "[2]", "value": "showed binding"}, {"measurement": "binding to laminin", "setting": "[3]", "value": "showed binding"}, {"measurement": "binding to fibronectin", "setting": "[4]", "value": "showed binding"}, {"measurement": "binding to other ECM proteins", "setting": "[5]", "value": "not with any of the other ECM proteins tested"}, {"measurement": "binding to laminin", "setting": "[6]", "value": "in a dose-dependent manner"}, {"measurement": "binding to thrombospondin", "setting": "[7]", "value": "in a dose-dependent manner"}, {"measurement": "binding to fibronectin", "setting": "[8]", "value": "in a dose-dependent manner"}]}
